Molecular target: hBAFF-R-GFP fusion protein on mouse fibroblast L cells (clone D2C) (human) (UniProt Q96RJ3)
Experiment: cell ELISA of hybridoma supernatant, anti-mouse IgG-HRP; same clone on parental L cell: 0.102

OD 450 nm on (h)BAFF-R-expressing cells: 1.07 OD 450 nm
B1: mouse mAb Clone 55 (hybridoma) (antibody, V domains shown)
VH: QVTLKESGPGILKPSQTLSLTCSFSGFSLSTSGMGVGWIRQPSGKGLEWLAHIWWDDDKYYNSSLKSHLTISKDTSRNQVFLKITSVDTADTATYYCARSFGYGLDYWGQGTTLTVSS
VL: DIQMTQTTSSLSASLGDRVTISCSASQDISNYLNWYQQKPDGTVKLLIYYTSSLHSGVPSRFSGSGSGTDYSLTISSLEPEDIATYYCHQFSELPWTFGGGTKLEIKR
